Reference: article PMC4474691, “Leukemia-Associated Mutations in Nucleophosmin Alter Recognition by CRM1: Molecular Basis of Aberrant Transport” (PLoS ONE, 2015)
Each block holds one binder with its values, some of them ahead of it.

Target: T1, wild type nucleophosmin (NPM) (human, UniProt P06748 1-294)
T1 construct: human nucleophosmin, full length, wild type, pentameric; also called NPM1; B23; source: E. coli BL21 (DE3), purified (Ni-NTA, TEV, second Ni-NTA, Superdex 200); not shown: (His)10-ZZ, N-terminal, cleaved
T1 sequence (P06748 whole entry): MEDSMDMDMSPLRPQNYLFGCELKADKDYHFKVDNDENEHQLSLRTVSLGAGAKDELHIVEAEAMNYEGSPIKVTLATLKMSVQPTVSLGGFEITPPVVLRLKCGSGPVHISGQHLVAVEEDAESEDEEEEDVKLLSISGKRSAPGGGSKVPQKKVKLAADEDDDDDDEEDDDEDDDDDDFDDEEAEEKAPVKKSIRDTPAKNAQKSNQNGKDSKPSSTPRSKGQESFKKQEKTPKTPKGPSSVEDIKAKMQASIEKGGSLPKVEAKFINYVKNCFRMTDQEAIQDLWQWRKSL
Assay: ITC; importin α, importin Δα or importin α/β at 45–60 μM titrated onto NPM (1–1.2 μM pentamer); 50 mM Tris/HCl pH 7.5, 100 mM NaCl, 2 mM TCEP, 10% glycerol; identical, independent binding sites model; n counts importins for each NPM pentamer
Conditions: both partners purified

- Kd: 703 ± 347 nM
- dH: -10.9 ± 4 kcal/mol
- stoichiometry N: 5 ± 0.2
B1: importin α (receptor)
chain: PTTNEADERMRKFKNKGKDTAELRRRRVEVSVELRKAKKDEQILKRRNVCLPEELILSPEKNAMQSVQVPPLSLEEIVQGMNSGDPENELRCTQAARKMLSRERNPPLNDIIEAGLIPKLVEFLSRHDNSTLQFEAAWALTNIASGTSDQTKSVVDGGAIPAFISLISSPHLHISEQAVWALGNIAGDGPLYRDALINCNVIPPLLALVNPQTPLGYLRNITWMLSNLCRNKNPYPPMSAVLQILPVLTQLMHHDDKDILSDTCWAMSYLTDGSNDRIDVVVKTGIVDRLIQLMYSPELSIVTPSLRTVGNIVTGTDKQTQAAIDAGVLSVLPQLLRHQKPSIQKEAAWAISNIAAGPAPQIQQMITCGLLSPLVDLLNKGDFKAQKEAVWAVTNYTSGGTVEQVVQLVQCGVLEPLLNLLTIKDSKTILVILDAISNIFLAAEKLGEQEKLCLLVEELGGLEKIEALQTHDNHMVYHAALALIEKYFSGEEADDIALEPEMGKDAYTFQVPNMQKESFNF

- Kd: 295 ± 20 nM
- dH: -14.3 ± 3.5 kcal/mol
- stoichiometry N: 4.9 ± 0.2
B2: importin Δα (importin α lacking the importin β binding (IBB) motif) (domain or fragment)
chain: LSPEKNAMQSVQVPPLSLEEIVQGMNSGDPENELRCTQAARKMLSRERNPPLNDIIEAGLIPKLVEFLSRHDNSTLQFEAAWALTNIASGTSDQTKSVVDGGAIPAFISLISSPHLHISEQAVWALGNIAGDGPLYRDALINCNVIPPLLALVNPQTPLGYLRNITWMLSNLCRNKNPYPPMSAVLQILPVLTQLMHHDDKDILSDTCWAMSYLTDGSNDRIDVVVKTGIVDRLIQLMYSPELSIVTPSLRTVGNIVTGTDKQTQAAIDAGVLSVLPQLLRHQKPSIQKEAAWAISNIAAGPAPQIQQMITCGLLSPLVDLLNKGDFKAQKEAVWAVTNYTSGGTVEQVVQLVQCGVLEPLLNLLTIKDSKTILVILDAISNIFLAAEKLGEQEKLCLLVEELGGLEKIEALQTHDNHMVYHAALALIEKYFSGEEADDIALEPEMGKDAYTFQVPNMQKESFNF
